Several values for one entry are separate records, joined by “and”; a condition that tells them apart may be missing. Equal entries are not always repeated.
Tests used:
[1] = target: the molecule itself; experiment: native gel or EMSA; whole cell lysates of HeLa cells (IFNγ 45 min, then staurosporine for the durations indicated) incubated in vitro with 32P-labelled M67 DNA (single high-affinity GAS site); STAT1 dimers seen as DNA-bound complexes on a 4% acrylamide gel at 4°C; homo- and heterodimers told apart by mobility
[2] = target: the molecule itself; experiment: native gel or EMSA; extracts of IFNγ-stimulated U3A cells incubated in vitro with 32P-labelled DNA containing a tandem GAS site; unchallenged or challenged for 30 min with a 750-fold molar excess of a single unlabelled GAS site (M67); dimeric and tetrameric STAT1 seen as DNA-bound complexes
[3] = target: T1, endogenous (native) STAT1 of HeLa cells (human (endogenous in HeLa)), P42224; experiment: native gel or EMSA; whole cell lysates of HeLa cells (IFNγ 45 min, then staurosporine for the durations indicated) incubated in vitro with 32P-labelled M67 DNA (single high-affinity GAS site); STAT1 dimers seen as DNA-bound complexes on a 4% acrylamide gel at 4°C; homo- and heterodimers told apart by mobility; settings: remark: other sources report otherwise
T1 chain: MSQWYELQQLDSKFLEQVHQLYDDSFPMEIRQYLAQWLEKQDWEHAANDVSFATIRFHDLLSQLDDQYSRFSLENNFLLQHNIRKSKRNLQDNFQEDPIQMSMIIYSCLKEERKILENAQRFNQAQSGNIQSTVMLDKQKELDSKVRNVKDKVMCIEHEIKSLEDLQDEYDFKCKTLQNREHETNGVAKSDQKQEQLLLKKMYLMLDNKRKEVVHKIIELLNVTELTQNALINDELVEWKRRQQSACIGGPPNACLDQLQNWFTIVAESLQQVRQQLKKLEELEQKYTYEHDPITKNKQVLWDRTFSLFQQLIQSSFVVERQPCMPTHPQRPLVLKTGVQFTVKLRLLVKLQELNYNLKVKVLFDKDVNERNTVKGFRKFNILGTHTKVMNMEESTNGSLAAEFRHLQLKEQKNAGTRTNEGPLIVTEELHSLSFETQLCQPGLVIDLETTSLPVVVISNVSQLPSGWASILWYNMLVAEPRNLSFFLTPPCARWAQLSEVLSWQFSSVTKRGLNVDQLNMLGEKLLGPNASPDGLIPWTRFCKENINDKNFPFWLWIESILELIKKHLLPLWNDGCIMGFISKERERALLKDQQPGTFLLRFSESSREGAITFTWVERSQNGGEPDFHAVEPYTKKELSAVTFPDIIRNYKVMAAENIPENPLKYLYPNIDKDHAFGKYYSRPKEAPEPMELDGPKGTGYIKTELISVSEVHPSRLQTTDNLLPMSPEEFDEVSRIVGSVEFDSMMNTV

| Binder | stoichiometry N [1] | stoichiometry N [2] | also measured |
| --- | --- | --- | --- |
| STAT1-WT-GFP (wild-type human STAT1 fused to green fluorescent protein) (natural protein, UniProt P42224 1-746, looked up, tyrosine-phosphorylated (phospho-Tyr701) after stimulation of cells with IFNγ, also called STAT1-GFP; GFP-tagged wild-type STAT1; source: HeLa cells, transfected (pEGFP-N1-STAT1), IFNγ-stimulated, in whole cell lysate; not shown: GFP, C-terminal, kept) MSQWYELQQLDSKFLEQVHQLYDDSFPMEIRQYLAQWLEKQDWEHAANDVSFATIRFHDLLSQLDDQYSRFSLENNFLLQHNIRKSKRNLQDNFQEDPIQMSMIIYSCLKEERKILENAQRFNQAQSGNIQSTVMLDKQKELDSKVRNVKDKVMCIEHEIKSLEDLQDEYDFKCKTLQNREHETNGVAKSDQKQEQLLLKKMYLMLDNKRKEVVHKIIELLNVTELTQNALINDELVEWKRRQQSACIGGPPNACLDQLQNWFTIVAESLQQVRQQLKKLEELEQKYTYEHDPITKNKQVLWDRTFSLFQQLIQSSFVVERQPCMPTHPQRPLVLKTGVQFTVKLRLLVKLQELNYNLKVKVLFDKDVNERNTVKGFRKFNILGTHTKVMNMEESTNGSLAAEFRHLQLKEQKNAGTRTNEGPLIVTEELHSLSFETQLCQPGLVIDLETTSLPVVVISNVSQLPSGWASILWYNMLVAEPRNLSFFLTPPCARWAQLSEVLSWQFSSVTKRGLNVDQLNMLGEKLLGPNASPDGLIPWTRFCKENINDKNFPFWLWIESILELIKKHLLPLWNDGCIMGFISKERERALLKDQQPGTFLLRFSESSREGAITFTWVERSQNGGEPDFHAVEPYTKKELSAVTFPDIIRNYKVMAAENIPENPLKYLYPNIDKDHAFGKYYSRPKEAPEPMELDGPKGTGYIKTELISVSEVHPSRLQTTDNLLPMSPEEFDEVSRIVGSVEFDSM | 2 | – | – |
| wild-type STAT1 expressed in STAT1-negative U3A cells (natural protein, human, UniProt P42224 1-746, looked up, tyrosine-phosphorylated after stimulation of cells with IFNγ, STAT1, human; also called STAT1-WT; source: U3A cells, transfected, IFNγ-stimulated, in cell extract) MSQWYELQQLDSKFLEQVHQLYDDSFPMEIRQYLAQWLEKQDWEHAANDVSFATIRFHDLLSQLDDQYSRFSLENNFLLQHNIRKSKRNLQDNFQEDPIQMSMIIYSCLKEERKILENAQRFNQAQSGNIQSTVMLDKQKELDSKVRNVKDKVMCIEHEIKSLEDLQDEYDFKCKTLQNREHETNGVAKSDQKQEQLLLKKMYLMLDNKRKEVVHKIIELLNVTELTQNALINDELVEWKRRQQSACIGGPPNACLDQLQNWFTIVAESLQQVRQQLKKLEELEQKYTYEHDPITKNKQVLWDRTFSLFQQLIQSSFVVERQPCMPTHPQRPLVLKTGVQFTVKLRLLVKLQELNYNLKVKVLFDKDVNERNTVKGFRKFNILGTHTKVMNMEESTNGSLAAEFRHLQLKEQKNAGTRTNEGPLIVTEELHSLSFETQLCQPGLVIDLETTSLPVVVISNVSQLPSGWASILWYNMLVAEPRNLSFFLTPPCARWAQLSEVLSWQFSSVTKRGLNVDQLNMLGEKLLGPNASPDGLIPWTRFCKENINDKNFPFWLWIESILELIKKHLLPLWNDGCIMGFISKERERALLKDQQPGTFLLRFSESSREGAITFTWVERSQNGGEPDFHAVEPYTKKELSAVTFPDIIRNYKVMAAENIPENPLKYLYPNIDKDHAFGKYYSRPKEAPEPMELDGPKGTGYIKTELISVSEVHPSRLQTTDNLLPMSPEEFDEVSRIVGSVEFDSM | – | 2 and 4 | – |
| STAT1-E411A expressed in STAT1-negative U3A cells (natural protein, human, UniProt P42224 1-746, looked up, tyrosine-phosphorylated after stimulation of cells with IFNγ, STAT1, human; glutamic acid 411 changed to alanine; also called E411A mutant; mutant STAT1; source: U3A cells, transfected, IFNγ-stimulated, in cell extract) MSQWYELQQLDSKFLEQVHQLYDDSFPMEIRQYLAQWLEKQDWEHAANDVSFATIRFHDLLSQLDDQYSRFSLENNFLLQHNIRKSKRNLQDNFQEDPIQMSMIIYSCLKEERKILENAQRFNQAQSGNIQSTVMLDKQKELDSKVRNVKDKVMCIEHEIKSLEDLQDEYDFKCKTLQNREHETNGVAKSDQKQEQLLLKKMYLMLDNKRKEVVHKIIELLNVTELTQNALINDELVEWKRRQQSACIGGPPNACLDQLQNWFTIVAESLQQVRQQLKKLEELEQKYTYEHDPITKNKQVLWDRTFSLFQQLIQSSFVVERQPCMPTHPQRPLVLKTGVQFTVKLRLLVKLQELNYNLKVKVLFDKDVNERNTVKGFRKFNILGTHTKVMNMEESTNGSLAAEFRHLQLKAQKNAGTRTNEGPLIVTEELHSLSFETQLCQPGLVIDLETTSLPVVVISNVSQLPSGWASILWYNMLVAEPRNLSFFLTPPCARWAQLSEVLSWQFSSVTKRGLNVDQLNMLGEKLLGPNASPDGLIPWTRFCKENINDKNFPFWLWIESILELIKKHLLPLWNDGCIMGFISKERERALLKDQQPGTFLLRFSESSREGAITFTWVERSQNGGEPDFHAVEPYTKKELSAVTFPDIIRNYKVMAAENIPENPLKYLYPNIDKDHAFGKYYSRPKEAPEPMELDGPKGTGYIKTELISVSEVHPSRLQTTDNLLPMSPEEFDEVSRIVGSVEFDSM | – | 2 and 4 | – |
| STAT1-E411A-GFP (natural protein, human, UniProt P42224 1-746, looked up, tyrosine-phosphorylated (phospho-Tyr701) after stimulation of cells with IFNγ, STAT1, human; also called E411 mutant; source: HeLa cells, transfected (pEGFP-N1-STAT1 with point mutation), IFNγ-stimulated, in whole cell lysate; not shown: GFP, C-terminal, kept) MSQWYELQQLDSKFLEQVHQLYDDSFPMEIRQYLAQWLEKQDWEHAANDVSFATIRFHDLLSQLDDQYSRFSLENNFLLQHNIRKSKRNLQDNFQEDPIQMSMIIYSCLKEERKILENAQRFNQAQSGNIQSTVMLDKQKELDSKVRNVKDKVMCIEHEIKSLEDLQDEYDFKCKTLQNREHETNGVAKSDQKQEQLLLKKMYLMLDNKRKEVVHKIIELLNVTELTQNALINDELVEWKRRQQSACIGGPPNACLDQLQNWFTIVAESLQQVRQQLKKLEELEQKYTYEHDPITKNKQVLWDRTFSLFQQLIQSSFVVERQPCMPTHPQRPLVLKTGVQFTVKLRLLVKLQELNYNLKVKVLFDKDVNERNTVKGFRKFNILGTHTKVMNMEESTNGSLAAEFRHLQLKAQKNAGTRTNEGPLIVTEELHSLSFETQLCQPGLVIDLETTSLPVVVISNVSQLPSGWASILWYNMLVAEPRNLSFFLTPPCARWAQLSEVLSWQFSSVTKRGLNVDQLNMLGEKLLGPNASPDGLIPWTRFCKENINDKNFPFWLWIESILELIKKHLLPLWNDGCIMGFISKERERALLKDQQPGTFLLRFSESSREGAITFTWVERSQNGGEPDFHAVEPYTKKELSAVTFPDIIRNYKVMAAENIPENPLKYLYPNIDKDHAFGKYYSRPKEAPEPMELDGPKGTGYIKTELISVSEVHPSRLQTTDNLLPMSPEEFDEVSRIVGSVEFDSM | 2 | – | – |
| endogenous (native) STAT1 of HeLa cells, P42224 1-750 (natural protein, here or on the partner: tyrosine-phosphorylated (phospho-Tyr701) after stimulation of cells with IFNγ; tyrosine-phosphorylated (phospho-Tyr701) after stimulation of cells with IFNγ) MSQWYELQQLDSKFLEQVHQLYDDSFPMEIRQYLAQWLEKQDWEHAANDVSFATIRFHDLLSQLDDQYSRFSLENNFLLQHNIRKSKRNLQDNFQEDPIQMSMIIYSCLKEERKILENAQRFNQAQSGNIQSTVMLDKQKELDSKVRNVKDKVMCIEHEIKSLEDLQDEYDFKCKTLQNREHETNGVAKSDQKQEQLLLKKMYLMLDNKRKEVVHKIIELLNVTELTQNALINDELVEWKRRQQSACIGGPPNACLDQLQNWFTIVAESLQQVRQQLKKLEELEQKYTYEHDPITKNKQVLWDRTFSLFQQLIQSSFVVERQPCMPTHPQRPLVLKTGVQFTVKLRLLVKLQELNYNLKVKVLFDKDVNERNTVKGFRKFNILGTHTKVMNMEESTNGSLAAEFRHLQLKEQKNAGTRTNEGPLIVTEELHSLSFETQLCQPGLVIDLETTSLPVVVISNVSQLPSGWASILWYNMLVAEPRNLSFFLTPPCARWAQLSEVLSWQFSSVTKRGLNVDQLNMLGEKLLGPNASPDGLIPWTRFCKENINDKNFPFWLWIESILELIKKHLLPLWNDGCIMGFISKERERALLKDQQPGTFLLRFSESSREGAITFTWVERSQNGGEPDFHAVEPYTKKELSAVTFPDIIRNYKVMAAENIPENPLKYLYPNIDKDHAFGKYYSRPKEAPEPMELDGPKGTGYIKTELISVSEVHPSRLQTTDNLLPMSPEEFDEVSRIVGSVEFDSMMNTV | – | – | stoichiometry N [3]: 2 |

Source: PMC3507856, “Two glutamic acid residues in the DNA-binding domain are engaged in the release of STAT1 dimers from DNA” (BMC Cell Biology, 2012)
